From article doi:10.1101/2021.05.10.443412 come the findings set out here.

For test [1], the target named is T1, factor inhibiting HIF-1 (FIH-1), full-length (human), Q9NWT6. Nature of the test: SEC-MALS. To be noted: remark: other sources report otherwise. In general terms: SEC sorts molecules by how far they enter the pores of the column.
The target of test [2] is T1, factor inhibiting HIF-1 (FIH-1), …. Briefly: SEC. The note with it: remark: other sources report otherwise.

B1: factor inhibiting HIF-1 (FIH-1), full-length, Q9NWT6 1-349 (enzyme)
chain: MAATAAEAVASGSGEPREEAGALGPAWDESQLRSYSFPTRPIPRLSQSDPRAEELIENEEPVVLTDTNLVYPALKWDLEYLQENIGNGDFSVYSASTHKFLYYDEKKMANFQNFKPRSNREEMKFHEFVEKLQDIQQRGGEERLYLQQTLNDTVGRKIVMDFLGFNWNWINKQQGKRGWGQLTSNLLLIGMEGNVTPAHYDEQQNFFAQIKGYKRCILFPPDQFECLYPYPVHHPCDRQSQVDFDNPDYERFPNFQNVVGYETVVGPGDVLYIPMYWWHHIESLLNGGITITVNFWYKGAPTPKRIEYPLKAHQKVAIMRNIEKMLGEALGNPQEVGPLLNTMIKGRYN
Take B1: the stoichiometry N in test [1] and in test [2] was 2 in each case.
